Test results reported in patent US10100120B2, “Antibody which specifically binds to human CRTH2” (KYOWA HAKKO KIRIN CO., LTD, priority 2015, dated 2018).
Residue numbers refer to the chain shown, from its start.

Tests used:
[1] = molecular target: T1, mutated human CRTH2 with amino acid substitution (Homo sapiens, UniProt Q9Y5Y4, D196A/T198A); test: Epitope analysis using CHO-S cells which express mutated human CRTH2 with amino acid substitution; assay type: binding; conditions: mutant D196A and T198A; antibody 10 μg/mL; relative to wild-type = 100%
T1 construct: inserting genes encoding various mutants with amino acid substitution obtained by deleting termination codons; expressed in transfected cells; host or cells: CHO-S cells (Lifetechnologies), transient (phmAG1-MNLinker vector)
T1 sequence (Q9Y5Y4 1-395 D196A/T198A): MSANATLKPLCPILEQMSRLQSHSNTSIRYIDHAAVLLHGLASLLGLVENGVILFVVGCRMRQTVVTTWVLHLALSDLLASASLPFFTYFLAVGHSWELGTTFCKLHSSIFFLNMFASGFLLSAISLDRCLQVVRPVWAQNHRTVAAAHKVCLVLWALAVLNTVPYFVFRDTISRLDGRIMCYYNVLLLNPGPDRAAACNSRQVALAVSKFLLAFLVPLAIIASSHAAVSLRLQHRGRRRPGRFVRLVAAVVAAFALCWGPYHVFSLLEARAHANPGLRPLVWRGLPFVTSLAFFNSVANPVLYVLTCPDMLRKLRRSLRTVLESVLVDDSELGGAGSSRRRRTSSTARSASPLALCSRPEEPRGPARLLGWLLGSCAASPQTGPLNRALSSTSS
Description: (§1) A mutant with amino acid substitution expression vector obtained by partially substituting amino acid residues in an extracellular region with other amino acid residues among the amino acid sequences of human CRTH2 was prepared. Specifically, mutant with amino acid substitution expression vectors obtained by substitution of S2A; N4A; T6A and L7A; K8A, P9A, and L10A; P12A, L14A, and EISA; Q16E, R19H, and Q21R; H23A, S24A, and N25A; T26A, S27A, and I28A; D171A, T172A, and I173A; S174A, R175A, and L176A; D177A, G178A, and R179A; 1180A and M181A; Y183A, Y184A, and N185A; L187A, L188A, and L189A; N190A; P191A; G192A; P193A; D194A; R195A; D196A, and T198A; N275A, G277A, and L278A; P276A; P279A and L281A; P280A; or V282A, R283A, and R284A in the amino acid sequences represented by SEQ ID NO: 2 were respectively prepared. It should be noted that the above symbols in the amino acid substitution indicate [single letter code of an amino acid residue before substitution] [substitution position counting from the N terminal] [single letter code of the amino acid reside after substitution].
(§2) Azami-Green tag was added to the intercellular C terminal region by inserting genes encoding various mutants with amino acid substitution obtained by deleting termination codons to the restriction enzyme sites of BamHI and HindIII using phmAG1-MNLinker (MBL) as expression vectors.
(§3) The above-described vectors expressing mutants with amino acid substitution were prepared using 1) a method of entirely synthesizing gene sequences encoding mutants with amino acid substitution and inserting the gene sequences into a vector or 2) a method of performing site-specific mutation from a vector into which DNA which encodes the amino acid sequences of wild-type human CRTH2 represented by SEQ ID NO: 1 was inserted.
(§4) CHO-S cells (Lifetechnologies) were used for preparing mutated human CRTH2 with amino acid substitution expressing cell lines. Free style CHO expression medium (Invitrogen) containing 8 mM L-Glutamine (Invitrogen) was used for subculturing cells and the cells were cultured by shaking under the conditions of 37° C. in the presence of 5% CO2.
(§5) 25 μg of the mutated human CRTH2 with amino acid substitution expression vector prepared in (1) described above was dissolved in 400 μL of Opti-Pro SFM (Invitrogen) and 25 μL of a Freestyle MAX Reagent (Invitrogen) was dissolved in 400 μL of Opti-Pro SFM and each of them were allowed to stand at room temperature for 5 minutes. The two liquids were mixed with each other and allowed to stand at room temperature for 15 minutes. The mixed solution was added to the CHO-S culture solution and the cells were cultured for 24 hours, thereby obtaining cell lines which express mutated human CRTH2 with amino acid substitution.
(§6) The CHO-S cells which express mutated human CRTH2 with amino acid substitution established in (2) were washed with SM, seeded in a 96-well plate such that one well has 2×10^5 cells, and centrifuged at 1700 rpm for 2 minutes. After the supernatant was removed, chLym2, LV0HV1, the anti-human CRTH2 antibody hu19A2 v52, hu8B1 v1, ch3C12, or ch31A5 prepared in Example 9, or a commercially available anti-human CRTH2 antibody BM16 (Santa Cruz) prepared to have a concentration of 10 μg/mL using SM was added thereto to cause a reaction at 4° C. for 1 hour.
(§7) After the cells were washed, goat anti-Human IgG Alexa 647 (Molecular Probes) diluted with SM was added to wells to which chLym2, LV0HV1, hu19A2 v52, hu8B1 v1, ch3C12, or ch31A5 was added and goat anti-Rat IgG Alexa 647 (Molecular Probes) diluted with SM was added to wells to which BM16 was added at a final concentration of 10 μg/mL to cause a reaction at 4° C. for 1 hour.
(§8) After the reaction, the cells were washed and suspended with SM, and the fluorescent intensity was analyzed by flow cytometry (BD Biosciences, FACS CantoII). […]

[2] = molecular target: T2, mutated human CRTH2 with amino acid substitution (Homo sapiens, UniProt Q9Y5Y4, N185A/Y183A/Y184A); test: as above; assay type: binding; conditions: mutant Y183A, Y184A, and N185A; antibody 10 μg/mL; relative to wild-type = 100%
T2 construct: inserting genes encoding various mutants with amino acid substitution obtained by deleting termination codons; expressed in transfected cells; host or cells: CHO-S cells (Lifetechnologies), transient (phmAG1-MNLinker vector)
T2 sequence (Q9Y5Y4 1-395 Y183A/Y184A/N185A): T1 sequence (Q9Y5Y4 1-395 D196A/T198A) with Y183A, Y184A, N185A, A196D, A198T
Description: as §1, §2, §3, §4, §5, §6, §7, §8

reactivity against cells expressing mutated human CRTH2 [1]: lost
reactivity against cells expressing mutated human CRTH2 [2]: lost
B1: LV0HV1: humanized Lym2 antibody, VL LV0 (SEQ ID NO: 33), VH HV1 (SEQ ID NO: 51) (antibody, V domains shown)
VH: EVQLVESGGGVVQPGRSLRLSCAASGFTFSNYYMAWVRQAPGKGLEWVATISYDGSSTYYRDSVKGRFTISRDNAKNSLYLQMNSLRAEDTATYYCARHRGYYYSGAGYFDYWGQGTMVTVSS
VL: DIVMTQTPLSLPVTPGESASISCRSSQSLEYSDGYTYLEWYLQKPGQSPQVLIYGVSNRFSGVPDRFSGSGSGTDFTLKISRVEAEDVGVYYCFQATHDPLTFGQGTKLEIK
